The text below walks through data of patent US20050170442.

In the data set the target is T1, Biotin-labeled fluorescent peptide CPRPFSVPP(S*)PDK-(5-FAM) (not fully specified).
T1 chain: CPRPFSVPPSPDK

B1: GSK3α, rHuman (protein)
chain: MSGGGPSGGGPGGSGRARTSSFAEPGGGGGGGGGGPGGSASGPGGTGGGKASVGAMGGGVGASSSGGGPGGSGGGGSGGPGAGTSFPPPGVKLGRDSGKVTTVVATLGQGPERSQEVAYTDIKVIGNGSFGVVYQARLAETRELVAIKKVLQDKRFKNRELQIMRKLDHCNIVRLRYFFYSSGEKKDELYLNLVLEYVPETVYRVARHFTKAKLTIPILYVKVYMYQLFRSLAYIHSQGVCHRDIKPQNLLVDPDTAVLKLCDFGSAKQLVRGEPNVSYICSRYYRAPELIFGATDYTSSIDVWSAGCVLAELLLGQPIFPGDSGVDQLVEIIKVLGTPTREQIREMNPNYTEFKFPQIKAHPWTKVFKSRTPPEAIALCSSLLEYTPSSRLSPLEACAHSFFDELRCLGTQLPNNRPLPPLFNFSAGELSIQPSLNAILIPPHLRSPAGTTTLTPSSQALTETPTSSDWQSTDATPTLTNSS
As for B1, the “TR-FRET ratio (Em520/Em495) after kinase reaction, chymotrypsin development and Tb-streptavidin detection” value is recorded as “with GSK3a, a higher TR-FRET ratio than without GSK3α is seen”; the “TR-FRET ratio (Em520/Em495) in the chymotrypsin titration” value was “with GSK3α a higher TR-FRET ratio than without GSK3α is seen”; the “amount of enzyme/well needed for roughly 50% maximal signal at 10 µM ATP/well (TR-FRET enzyme titration)” value is recorded as 0.05 µg/ml for GSK3α.
